Assay results as given in patent US20240350588A1 (SUNSHINE LAKE PHARMA, published 2024).

T1: human GFRAL (UniProtKB-Q6UXVO) (human, UniProt Q6UXV0 19-394)
T1 sequence (looked up): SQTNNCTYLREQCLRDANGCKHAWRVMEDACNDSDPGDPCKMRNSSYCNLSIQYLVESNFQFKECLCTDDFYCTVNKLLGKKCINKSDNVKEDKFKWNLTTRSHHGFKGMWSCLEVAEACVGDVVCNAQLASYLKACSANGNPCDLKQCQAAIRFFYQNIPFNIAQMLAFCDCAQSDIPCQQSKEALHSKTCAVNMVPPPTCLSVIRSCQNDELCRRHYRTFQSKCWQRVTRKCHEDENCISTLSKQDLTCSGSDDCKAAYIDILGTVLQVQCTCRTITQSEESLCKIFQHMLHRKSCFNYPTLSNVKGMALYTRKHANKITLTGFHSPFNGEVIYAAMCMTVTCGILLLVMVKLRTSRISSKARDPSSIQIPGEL


Biological target: T1, human GFRAL (UniProtKB-Q6UXVO)
Assay: cell-based or functional assay

Row | Relative activity ratio (native GDF15 EC50: Fc-GDF15 construct EC50), ERK1/2 phosphorylation HTRF in HEK293T cells expressing human GFRAL and RET | Binder
1 | 1.26 ratio | Fc-GDF15 fusion protein M29 (Fc fusion) APEAAGGPSVFLFPPKPKDTLMISRTPEVTCVVVDVSQEDPEVQFNWYVDGVEVHNAKTKPREEQFNSTYRVVSVLTVLHQDWLNGKEYKCKVSNKGLPSSIEKTISKAKGQPREPQVYTLPPSQEEMTKNQVSLTCLVKGFYPSDIAVEWESNGQPENNYKTTPPVLDSDGSFFLYSRLTVDKSRWQEGNVFSCSVMHEALHNHYTQESLSLSLGGGGGSGGGGSAPAPAPAPAPAPAPAPAPAPGGGGSGGGGSDHCPLGPGRCCRLHTVRASLEDLGWADWVLSPREVQVTMCIGDCPSQFRAANMHAQIKTSLHRLKPDTVPAPCCVPASYNPMVLIQKTDTGVSLQTYDDLLAKDCHCI
2 | 0.9 ratio | Fc-GDF15 fusion protein M34 (Fc fusion) APEAAGGPSVFLFPPKPKDTLMISRTPEVTCVVVDVSQEDPEVQFNWYVDGVEVHNAKTKPREEQFNSTYRVVSVLTVLHQDWLNGKEYKCKVSNKGLPSSIEKTISKAKGQPREPQVYTLPPSQEEMTKNQVSLTCLVKGFYPSDIAVEWESNGQPENNYKTTPPVLDSDGSFFLYSRLTVDKSRWQEGNVFSCSVMHEALHNHYTQESLSLSLGGGGGSGGGGSAPAPAPAPAPAPAPAPAPAPGGGGSGGGGSDHCPLGPGRCCRLHTVRASLEDLGWADWVLSPREVQVTMCIGACPSQFRAANMHAQIKTSLHRLKPDTVPAPCCVPSSYNPMVLIQKTDTGVSLQTYDDLLAKDCHCI
3 | 1.51 ratio | Fc-GDF15 fusion protein M30 (Fc fusion) APEAAGGPSVFLFPPKPKDTLMISRTPEVTCVVVDVSQEDPEVQFNWYVDGVEVHNAKTKPREEQFNSTYRVVSVLTVLHQDWLNGKEYKCKVSNKGLPSSIEKTISKAKGQPREPQVYTLPPSQEEMTKNQVSLTCLVKGFYPSDIAVEWESNGQPENNYKTTPPVLDSDGSFFLYSRLTVDKSRWQEGNVFSCSVMHEALHNHYTQESLSLSLGGGGGSGGGGSAPAPAPAPAPAPAPAPAPAPGGGGSGGGGSDHCPLGPGRCCRLHTVRASLEDLGWADWVLSPREVQVTMCIGACPSQFRSANMHAQIKTSLHRLKPDTVPAPCCVPASYNPMVLIQKTDTGVSLQTYDDLLAKDCHCI
4 | 0.82 ratio | Fc-GDF15 fusion protein M36 (Fc fusion) APEAAGGPSVFLFPPKPKDTLMISRTPEVTCVVVDVSQEDPEVQFNWYVDGVEVHNAKTKPREEQFNSTYRVVSVLTVLHQDWLNGKEYKCKVSNKGLPSSIEKTISKAKGQPREPQVYTLPPSQEEMTKNQVSLTCLVKGFYPSDIAVEWESNGQPENNYKTTPPVLDSDGSFFLYSRLTVDKSRWQEGNVFSCSVMHEALHNHYTQESLSLSLGGGGGSGGGGSAPAPAPAPAPAPAPAPAPAPGGGGSGGGGSDHCPLGPGRCCRLHTVRASLEDLGWADWVLSPREVQVTMCIGACPSQFRAANMHAQIKTSLHRLKPDTVPAPCCVPASYNPMVLIQKTDTGVSLQTYDDLLAQDCHCI
5 | 0.19 ratio | Fc-GDF15 fusion protein M35 (Fc fusion) APEAAGGPSVFLFPPKPKDTLMISRTPEVTCVVVDVSQEDPEVQFNWYVDGVEVHNAKTKPREEQFNSTYRVVSVLTVLHQDWLNGKEYKCKVSNKGLPSSIEKTISKAKGQPREPQVYTLPPSQEEMTKNQVSLTCLVKGFYPSDIAVEWESNGQPENNYKTTPPVLDSDGSFFLYSRLTVDKSRWQEGNVFSCSVMHEALHNHYTQESLSLSLGGGGGSGGGGSAPAPAPAPAPAPAPAPAPAPGGGGSGGGGSDHCPLGPGRCCRLHTVRASLEDLGWADWVLSPREVQVTMCIGACPSQFRAANMHAQIKTSLHRLKPDTVPAPCCVPASYNPMVLIQKTDEGVSLQTYDDLLAKDCHCI
6 | 0.87 ratio | Fc-GDF15 fusion protein M31 (Fc fusion) APEAAGGPSVFLFPPKPKDTLMISRTPEVTCVVVDVSQEDPEVQFNWYVDGVEVHNAKTKPREEQFNSTYRVVSVLTVLHQDWLNGKEYKCKVSNKGLPSSIEKTISKAKGQPREPQVYTLPPSQEEMTKNQVSLTCLVKGFYPSDIAVEWESNGQPENNYKTTPPVLDSDGSFFLYSRLTVDKSRWQEGNVFSCSVMHEALHNHYTQESLSLSLGGGGGSGGGGSAPAPAPAPAPAPAPAPAPAPGGGGSGGGGSDHCPLGPGRCCRLHTVRASLEDLGWADWVLSPREVQVTMCIGACPSQFRAENMHAQIKTSLHRLKPDTVPAPCCVPASYNPMVLIQKTDTGVSLQTYDDLLAKDCHCI
7 | 1.26 ratio | Fc-GDF15 fusion protein M32 (Fc fusion) APEAAGGPSVFLFPPKPKDTLMISRTPEVTCVVVDVSQEDPEVQFNWYVDGVEVHNAKTKPREEQFNSTYRVVSVLTVLHQDWLNGKEYKCKVSNKGLPSSIEKTISKAKGQPREPQVYTLPPSQEEMTKNQVSLTCLVKGFYPSDIAVEWESNGQPENNYKTTPPVLDSDGSFFLYSRLTVDKSRWQEGNVFSCSVMHEALHNHYTQESLSLSLGGGGGSGGGGSAPAPAPAPAPAPAPAPAPAPGGGGSGGGGSDHCPLGPGRCCRLHTVRASLEDLGWADWVLSPREVQVTMCIGACPSQFRAANTHAQIKTSLHRLKPDTVPAPCCVPASYNPMVLIQKTDTGVSLQTYDDLLAKDCHCI
8 | 0.84 ratio | Fc-GDF15 fusion protein M33 (Fc fusion) APEAAGGPSVFLFPPKPKDTLMISRTPEVTCVVVDVSQEDPEVQFNWYVDGVEVHNAKTKPREEQFNSTYRVVSVLTVLHQDWLNGKEYKCKVSNKGLPSSIEKTISKAKGQPREPQVYTLPPSQEEMTKNQVSLTCLVKGFYPSDIAVEWESNGQPENNYKTTPPVLDSDGSFFLYSRLTVDKSRWQEGNVFSCSVMHEALHNHYTQESLSLSLGGGGGSGGGGSAPAPAPAPAPAPAPAPAPAPGGGGSGGGGSDHCPLGPGRCCRLHTVRASLEDLGWADWVLSPREVQVTMCIGACPSQFRAANMHAQIKTSLHQLKPDTVPAPCCVPASYNPMVLIQKTDTGVSLQTYDDLLAKDCHCI
9 | 2.62 ratio | Fc-GDF15 fusion protein M39 (Fc fusion) APEAAGGPSVFLFPPKPKDTLMISRTPEVTCVVVDVSQEDPEVQFNWYVDGVEVHNAKTKPREEQFNSTYRVVSVLTVLHQDWLNGKEYKCKVSNKGLPSSIEKTISKAKGQPREPQVYTLPPSQEEMTKNQVSLTCLVKGFYPSDIAVEWESNGQPENNYKTTPPVLDSDGSFFLYSRLTVDKSRWQEGNVFSCSVMHEALHNHYTQQSLSLSLGGGGGSGGGGSAPAPAPAPAPAPAPAPAPAPGGGGSGGGGSGDHCPLGPGRCCRLHTVRASLEDLGWADWVLSPREVQVTMCIGACPSQFRAANMHAQIKTSLHRLKPDTVPAPCCVPASYNPMVLIQKTDTGVSLQTYDDLLAKDCHCI
10 | 3.17 ratio | Fc-GDF15 fusion protein M37 (Fc fusion) APEAAGGPSVFLFPPKPKDTLMISRTPEVTCVVVDVSQEDPEVQFNWYVDGVEVHNAKTKPREEQFNSTYRVVSVLTVLHQDWLNGKEYKCKVSNKGLPSSIEKTISKAKGQPREPQVYTLPPSQEEMTKNQVSLTCLVKGFYPSDIAVEWESNGQPENNYKTTPPVLDSDGSFFLYSRLTVDKSRWQEGNVFSCSVMHEALHNHYTQESLSLSLGGGGGSGGGGSAPAPAPAPAPAPAPAPAPAPGGGGSGGGGSCRLHTVRASLEDLGWADWVLSPREVQVTMCIGACPSQFRAANMHAQIKTSLHRLKPDTVPAPCCVPASYNPMVLIQKTDTGVSLQTYDDLLAKDCHCI
